The assay has as its target CDK4/6. In words: cell-based or functional assay. The conditions noted are these: scale: relative value.

No end group written: not given here. *: point of attachment. aminohexane = linker joining biotin to the N-terminal residue; Biotin = O=C1N[C@H]2[C@H](CS[C@H]2CCCCC(=O)*)N1

{Biotin-aminohexane}-GMPWSANPWWRGGGG [Polypeptide 6] returned a CDK4/6 Reactivity of 1.
In turn, {Biotin-aminohexane}-GMPFSPNPWWRGGGG [Polypeptide 13] gave a CDK4/6 Reactivity of 5.
Consider {Biotin-aminohexane}-GMPWSYNPWWRGGGG [Polypeptide 17], for which the CDK4/6 Reactivity is 2.
The result for {Biotin-aminohexane}-AMPWSPNPWWRGGGG [Polypeptide 2] reads 15.
{Biotin-aminohexane}-AMPWSPAPAARAGGG [Polypeptide F]: the CDK4/6 Reactivity was 7.
{Biotin-aminohexane}-GMPASPNPWWRGGGG [Polypeptide 5] had a CDK4/6 Reactivity of 1.
Under {Biotin-aminohexane}-GMYWSPNPWWRGGGG [Polypeptide E] stands 6; under {Biotin-aminohexane}-GMFWSPNPWWRGGGG [Polypeptide D], 5.
Molecule {Biotin-aminohexane}-GMPWSPNPWWRAGGG [Polypeptide 12] came in with a CDK4/6 Reactivity of 6.
In turn, {Biotin-aminohexane}-GMPWSPNPAWRGGGG [Polypeptide 9] had a CDK4/6 Reactivity of 7.
The result for {Biotin-aminohexane}-GMPWSPNPWWAGGGG [Polypeptide 11] reads 3; that for {Biotin-aminohexane}-GMWWSPNPWWRGGGG [Polypeptide C], 5.
Molecule {Biotin-aminohexane}-GMPWSFNPWWRGGGG [Polypeptide 16] had a CDK4/6 Reactivity of 2.
Molecule {Biotin-aminohexane}-GMPWSPNPWWHGGGG [Polypeptide A] showed a CDK4/6 Reactivity of 7.
In turn, {Biotin-aminohexane}-GMPWSWNPWWRGGGG [Polypeptide 15] showed a CDK4/6 Reactivity of 2.
The molecule {Biotin-aminohexane}-GAPWSPNPWWRGGGG [Polypeptide 3] registered a CDK4/6 Reactivity of 33.
Under {Biotin-aminohexane}-GMAWSPNPWWRGGGG [Polypeptide 4] stands 5; under {Biotin-aminohexane}-GMPWSPNAWWRGGGG [Polypeptide 8], 7.
For {Biotin-aminohexane}-GMPWSPAPWWRGGGG [Polypeptide 7], the CDK4/6 Reactivity is 8.
For {Biotin-aminohexane}-GMPWSPNPWWKGGGG [Polypeptide B], the CDK4/6 Reactivity turned out to be 5.
{Biotin-aminohexane}-GMPWSPNPWARGGGG [Polypeptide 10] showed a CDK4/6 Reactivity of 15.
Molecule {Biotin-aminohexane}-GMPWSPNPWWRGGGG [Polypeptide 1] yielded a CDK4/6 Reactivity of 13.
The molecule {Biotin-aminohexane}-GMPYSPNPWWRGGGG [Polypeptide 14] yielded a CDK4/6 Reactivity of 5.

(Values after US20180334702A1.)
